According to the supplement of paper PMC5998384:

Key:
HeLa Kyoto [1] = test: thermal stability score vs G1/S (z-score of summed log2 fold changes over temperatures); higher = more thermally stable than in G1/S
HeLa Kyoto [2] = test: solubility change mitosis vs G1/S (difference of NP-40 vs SDS log2 ratios) (log2 ratio difference); higher = more soluble in mitosis
HeLa Kyoto [3] = test: melting temperature (median over replicates), in situ; higher = more thermally stable
HeLa Kyoto [4] = test: solubility in G1/S (NP-40 vs SDS abundance) (log2 ratio); higher = more soluble; conditions: cell cycle stage: G1/S
[5] = cell cycle stage: early G1 (4.5 h after nocodazole release)
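For melting temperature (median over replicates), in situ in this document: HeLa Kyoto cells synchronized by double thymidine or nocodazole block, proteins quantified by TMT10plex mass spectrometry, three independent biological replicates.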
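For solubility change mitosis vs G1/S (difference of NP-40 vs SDS log2 ratios) in this document: synchronized HeLa Kyoto cells (double thymidine block for G1/S, nocodazole release for mitosis), protein amounts in NP-40 versus SDS lysates quantified by mass spectrometry, three biological replicates.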
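For solubility in G1/S (NP-40 vs SDS abundance) in this document: HeLa Kyoto cells arrested at G1/S by double thymidine block, proteins quantified by TMT10plex mass spectrometry in mild NP-40 versus SDS extracts, three biological replicates.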
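For thermal stability score vs G1/S (z-score of summed log2 fold changes over temperatures) in this document: synchronized HeLa Kyoto cells, proteins quantified by TMT10plex mass spectrometry, three biological replicates, mitosis taken 0.5 h after nocodazole release, G1/S directly after double thymidine block.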

Row | Sequence | thermal stability score (HeLa Kyoto [1]; [5]) | thermal stability score (HeLa Kyoto [1]; cell cycle stage: mitosis) | solubility change mitosis (log2) (HeLa Kyoto [2]) | melting temperature (HeLa Kyoto [3]; cell cycle stage: G1/S) [°C] | melting temperature (HeLa Kyoto [3]; cell cycle stage: mitosis) [°C] | solubility in G1/S (log2) (HeLa Kyoto [4])
1 | MSAPAGSSHPAASARIPPKFGGAAVSGAAAPAGPGAGPAPHQQNGPAQNQMQVPSGYGLHHQNYIAPSGHYSQGPGKMTSLPLDTQCGDYYSALYTVPTQNVTPNTVNQQPGAQQLYSRGPPAPHIVGSTLGSFQGAASSASHLHTSASQPYSSFVNHYNSPAMYSASSSVASQGFPSTCGHYAMSTVSNAAYPSVSYPSLPAGDTYGQMFTSQNAPTVRPVKDNSFSGQNTAISHPSPLPPLPSQQHHQQQSLSGYSTLTWSSPGLPSTQDNLIRNHTGSLAVANNNPTITVADSLSCPVMQNVQPPKSSPVVSTVLSGSSGSSSTRTPPTANHPVEPVTSVTQPSELLQQKGVQYGEYVNNQASSAPTPLSSTSDDEEEEEEDEEAGVDSSSTTSSASPMPNSYDALEGGSYPDMLSSSASSPAPDPAPEPDPASAPAPASAPAPVVPQPSKMAKPFGYGYPTLQPGYQNATAPLISGVQPSNPVYSGFQQYPQQYPGVNQLSSSIGGLSLQSSPQPESLRPVNLTQERNILPMTPVWAPVPNLNADLKKLNCSPDSFRCTLTNIPQTQALLNKAKLPLGLLLHPFRDLTQLPVITSNTIVRCRSCRTYINPFVSFIDQRRWKCNLCYRVNDVPEEFMYNPLTRSYGEPHKRPEVQNSTVEFIASSDYMLRPPQPAVYLFVLDVSHNAVEAGYLTILCQSLLENLDKLPGDSRTRIGFMTFDSTIHFYNLQEGLSQPQMLIVSDIDDVFLPTPDSLLVNLYESKELIKDLLNALPNMFTNTRETHSALGPALQAAFKLMSPTGGRVSVFQTQLPSLGAGLLQSREDPNQRSSTKVVQHLGPATDFYKKLALDCSGQQTAVDLFLLSSQYSDLASLACMSKYSAGCIYYYPSFHYTHNPSQAEKLQKDLKRYLTRKIGFEAVMRIRCTKGLSMHTFHGNFFVRSTDLLSLANINPDAGFAVQLSIEESLTDTSLVCFQTALLYTSSKGERRIRVHTLCLPVVSSLADVYAGVDVQAAICLLANMAVDRSVSSSLSDARDALVNAVVDSLSAYGSTVSNLQHSALMAPSSLKLFPLYVLALLKQKAFRTGTSTRLDDRVYAMCQIKSQPLVHLMKMIHPNLYRIDRLTDEGAVHVNDRIVPQPPLQKLSAEKLTREGAFLMDCGSVFYIWVGKGCDNNFIEDVLGYTNFASIPQKMTHLPELDTLSSERARSFITWLRDSRPLSPILHIVKDESPAKAEFFQHLIEDRTEAAFSYYEFLLHVQQQICK [SEC24B] | 1.03 | 1.85 | -0.119 | 48.8 | 49.5 | -0.132
2 | MSASASVGGPVPQPPPGPAAALPPGSAARALHVELPSQQRRLRHLRNIAARNIVNRNGHQLLDTYFTLHLCSTEKIYKEFYRSEVIKNSLNPTWRSLDFGIMPDRLDTSVSCFVVKIWGGKENIYQLLIEWKVCLDGLKYLGQQIHARNQNEIIFGLNDGYYGAPFEHKGYSNAQKTILLQVDQNCVRNSYDVFSLLRLHRAQCAIKQTQVTVQKIGKEIEEKLRLTSTSNELKKKSECLQLKILVLQNELERQKKALGREVALLHKQQIALQDKGSAFSAEHLKLQLQKESLNELRKECTAKRELFLKTNAQLTIRCRQLLSELSYIYPIDLNEHKDYFVCGVKLPNSEDFQAKDDGSIAVALGYTAHLVSMISFFLQVPLRYPIIHKGSRSTIKDNINDKLTEKEREFPLYPKGGEKLQFDYGVYLLNKNIAQLRYQHGLGTPDLRQTLPNLKNFMEHGLMVRCDRHHTSSAIPVPKRQSSIFGGADVGFSGGIPSPDKGHRKRASSENERLQYKTPPPSYNSALAQPVTTVPSMGETERKITSLSSSLDTSLDFSKENKKKGEDLVGSLNGGHANVHPSQEQGEALSGHRATVNGTLLPSEQAGSASVQLPGEFHPVSEAELCCTVEQAEEIIGLEATGFASGDQLEAFNCIPVDSAVAVECDEQVLGEFEEFSRRIYALNENVSSFRRPRRSSDK [UVRAG] | 0.204 | -0.16 | -0.117 | 51.7 | 52.4 | 0.216
3 | MSASSLLEQRPKGQGNKVQNGSVHQKDGLNDDDFEPYLSPQARPNNAYTAMSDSYLPSYYSPSIGFSYSLGEAAWSTGGDTAMPYLTSYGQLSNGEPHFLPDAMFGQPGALGSTPFLGQHGFNFFPSGIDFSAWGNNSSQGQSTQSSGYSSNYAYAPSSLGGAMIDGQSAFANETLNKAPGMNTIDQGMAALKLGSTEVASNVPKVVGSAVGSGSITSNIVASNSLPPATIAPPKPASWADIASKPAKQQPKLKTKNGIAGSSLPPPPIKHNMDIGTWDNKGPVAKAPSQALVQNIGQPTQGSPQPVGQQANNSPPVAQASVGQQTQPLPPPPPQPAQLSVQQQAAQPTRWVAPRNRGSGFGHNGVDGNGVGQSQAGSGSTPSEPHPVLEKLRSINNYNPKDFDWNLKHGRVFIIKSYSEDDIHRSIKYNIWCSTEHGNKRLDAAYRSMNGKGPVYLLFSVNGSGHFCGVAEMKSAVDYNTCAGVWSQDKWKGRFDVRWIFVKDVPNSQLRHIRLENNENKPVTNSRDTQEVPLEKAKQVLKIIASYKHTTSIFDDFSHYEKRQEEEESVKKERQGRGK [YTHDF2] | -0.975 | -1.92 | 0.0349 | 51 | 50.7 | 0.00424
4 | MSATSVDQRPKGQGNKVSVQNGSIHQKDAVNDDDFEPYLSSQTNQSNSYPPMSDPYMPSYYAPSIGFPYSLGEAAWSTAGDQPMPYLTTYGQMSNGEHHYIPDGVFSQPGALGNTPPFLGQHGFNFFPGNADFSTWGTSGSQGQSTQSSAYSSSYGYPPSSLGRAITDGQAGFGNDTLSKVPGISSIEQGMTGLKIGGDLTAAVTKTVGTALSSSGMTSIATNSVPPVSSAAPKPTSWAAIARKPAKPQPKLKPKGNVGIGGSAVPPPPIKHNMNIGTWDEKGSVVKAPPTQPVLPPQTIIQQPQPLIQPPPLVQSQLPQQQPQPPQPQQQQGPQPQAQPHQVQPQQQQLQNRWVAPRNRGAGFNQNNGAGSENFGLGVVPVSASPSSVEVHPVLEKLKAINNYNPKDFDWNLKNGRVFIIKSYSEDDIHRSIKYSIWCSTEHGNKRLDAAYRSLNGKGPLYLLFSVNGSGHFCGVAEMKSVVDYNAYAGVWSQDKWKGKFEVKWIFVKDVPNNQLRHIRLENNDNKPVTNSRDTQEVPLEKAKQVLKIIATFKHTTSIFDDFAHYEKRQEEEEAMRRERNRNKQ [YTHDF3] | -0.535 | -3.39 | -0.0838 | 52.4 | 51.6 | 0.098
5 | MSCESSMVLGYWDIRGLAHAIRLLLEFTDTSYEEKRYTCGEAPDYDRSQWLDVKFKLDLDFPNLPYLLDGKNKITQSNAILRYIARKHNMCGETEEEKIRVDIIENQVMDFRTQLIRLCYSSDHEKLKPQYLEELPGQLKQFSMFLGKFSWFAGEKLTFVDFLTYDILDQNRIFDPKCLDEFPNLKAFMCRFEALEKIAAYLQSDQFCKMPINNKMAQWGNKPVC [GSTM3] | 1.24 | 3.37 | -0.117 | 47.9 | 48.3 | 0.0979
6 | MSDDAGDTLATGDKAEVTEMPNSDSLPEDAEVHCDSAAVSHEPTPADPRGEGHENAAVQGAGAAAIGPPVQPQDANALEPPLNGDVTEDTLAECIDSVSLEAEPRSEIPLQEQNYLAVDSPPSGGGWAGWGSWGKSLLSSASATVGHGLTAVKEKAGATLRIHGVNSGSSEGAQPNTENGVPEITDAATDQGPAESPPTSPSSASRGMLSAITNVVQNTGKSVLTGGLDALEFIGKKTMNVLAESDPGFKRTKTLMERTVSLSQMLREAKEKEKQRLAQQLTMERTAHYGMLFDEYQGLSHLEALEILSNESESKVQSFLASLDGEKLELLKNDLISIKDIFAAKELENEENQEEQGLEEKGEEFARMLTELLFELHVAATPDKLNKAMKRAHDWVEEDQTVVSVDVAKVSEEETKKEEKEEKSQDPQEDKKEEKKTKTIEEVYMSSIESLAEVTARCIEQLHKVAELILHGQEEEKPAQDQAKVLIKLTTAMCNEVASLSKKFTNSLTTVGSNKKAEVLNPMISSVLLEGCNSTTYIQDAFQLLLPVLQVSHIQTSCLKAQP [FAM114A1] | 0.444 | 0.327 | -0.158 | 52.9 | 53.1 | 0.474
7 | MSDNQSWNSSGSEEDPETESGPPVERCGVLSKWTNYIHGWQDRWVVLKNNALSYYKSEDETEYGCRGSICLSKAVITPHDFDECRFDISVNDSVWYLRAQDPDHRQQWIDAIEQHKTESGYGSESSLRRHGSMVSLVSGASGYSATSTSSFKKGHSLREKLAEMETFRDILCRQVDTLQKYFDACADAVSKDELQRDKVVEDDEDDFPTTRSDGDFLHSTNGNKEKLFPHVTPKGINGIDFKGEAITFKATTAGILATLSHCIELMVKREDSWQKRLDKETEKKRRTEEAYKNAMTELKKKSHFGGPDYEEGPNSLINEEEFFDAVEAALDRQDKIEEQSQSEKVRLHWPTSLPSGDAFSSVGTHRFVQKPYSRSSSMSSIDLVSASDDVHRFSSQVEEMVQNHMTYSLQDVGGDANWQLVVEEGEMKVYRREVEENGIVLDPLKATHAVKGVTGHEVCNYFWNVDVRNDWETTIENFHVVETLADNAIIIYQTHKRVWPASQRDVLYLSVIRKIPALTENDPETWIVCNFSVDHDSAPLNNRCVRAKINVAMICQTLVSPPEGNQEISRDNILCKITYVANVNPGGWAPASVLRAVAKREYPKFLKRFTSYVQEKTAGKPILF [COL4A3BP] | -0.469 | -0.153 | -0.167 | 50.2 | 50.1 | 0.0115
8 | MSDSGEQNYGERESRSASRSGSAHGSGKSARHTPARSRSKEDSRRSRSKSRSRSESRSRSRRSSRRHYTRSRSRSRSHRRSRSRSYSRDYRRRHSHSHSPMSTRRRHVGNRANPDPNCCLGVFGLSLYTTERDLREVFSKYGPIADVSIVYDQQSRRSRGFAFVYFENVDDAKEAKERANGMELDGRRIRVDFSITKRPHTPTPGIYMGRPTYGSSRRRDYYDRGYDRGYDDRDYYSRSYRGGGGGGGGWRAAQDRDQIYRRRSPSPYYSRGGYRSRSRSRSYSPRRY [TRA2B] | -1.69 | -4.47 | 0.613 | 49.9 | 49.8 | -1.17
9 | MSDSKCDSQFYSVQVADSTFTVLKRYQQLKPIGSGAQGIVCAAFDTVLGINVAVKKLSRPFQNQTHAKRAYRELVLLKCVNHKNIISLLNVFTPQKTLEEFQDVYLVMELMDANLCQVIHMELDHERMSYLLYQMLCGIKHLHSAGIIHRDLKPSNIVVKSDCTLKILDFGLARTACTNFMMTPYVVTRYYRAPEVILGMGYKENVDIWSVGCIMGELVKGCVIFQGTDHIDQWNKVIEQLGTPSAEFMKKLQPTVRNYVENRPKYPGIKFEELFPDWIFPSESERDKIKTSQARDLLSKMLVIDPDKRISVDEALRHPYITVWYDPAEAEAPPPQIYDAQLEEREHAIEEWKELIYKEVMDWEERSKNGVVKDQPSDAAVSSNATPSQSSSINDISSMSTEQTLASDTDSSLDASTGPLEGCR [MAPK9] | -0.633 | -0.772 | -0.147 | 50.9 | – | -0.0645
